According to article PMC6668441, “Comparative Study of Subcutaneous and Orthotopic Mouse Models of Prostate Cancer: Vascular Perfusion, Vasculature Density, Hypoxic Burden and BB2r-Targeting Efficacy” (Scientific Reports, 2019):

Tests used:
[1] = Biodistribution, BB2r-targeted uptake, subcutaneous PC-3 xenograft model; settings: female, NOD SCID, mouse, iv, total radioactivity, 1 h 5 min p.i., mean ± SD; for dose excreted at 65 min: urine and faeces, excretion (urine and fecal material)
physchem = type: physicochemical; settings: pH 7.4
Description: Peptide synthesis was performed using an automated solid-phase peptide synthesizer employing traditional Fmoc chemistry and using a Rink Amide resin. Briefly, the resin (100 µmol of the resin substituted peptide anchors) was deprotected using piperidine, resulting in the formation of a primary amine from which the C-terminus of the growing peptide was anchored.
The Fmoc protected amino acids (300 µmol) with appropriate orthogonal protection were activated with HBTU and sequentially added to the resin. The resulting peptide was orthogonally deprotected and cleaved from the resin using a cocktail consisting of triisopropyl silane (0.1 mL), water (0.1 mL), 3,6-dioxa-1,8-octanedithiol (0.1 mL), trifluoroacetic acid (4.625 mL) and thioanisole (0.075 mL), respectively. The cleaved peptide was subsequently precipitated and washed using cold (0 °C) methyl-tert-butyl ether (10 mL×3). The crude conjugate was dried by a centrivap concentrator and weighed. ES-MS was used to determine the molecular mass of the prepared peptides. All conjugate were peak purified to • 95% purity and quantified by RP-HPLC prior to in vitro/in vivo investigations.
HPLC Purification and Analysis Methodology […]
The partition coefficient was determined for the 177Lu-labeled conjugate. […] Aliquots of 100 µL were taken from each layer and the radioactivity of each was quantified by a Ȗ-counter. […]

CSCC[C@H](NC(=O)[C@H](CC(C)C)NC(=O)[C@H](Cc1c[nH]cn1)NC(=O)CNC(=O)[C@@H](NC(=O)[C@H](C)NC(=O)[C@H](Cc1c[nH]c2ccccc12)NC(=O)[C@H](CCC(N)=O)NC(=O)CCOCCOCCOCCOCCNC(=O)[C@@H](CO)NC(=O)[C@@H](CO)NC(=O)[C@@H](CO)NC(=O)[C@@H](CO)NC(=O)[C@@H](CO)NC(=O)CN1CCN(CC(=O)O)CCN(CC(=O)O)CCN(CC(=O)O)CC1)C(C)C)C(N)=O [[^177Lu]Lu-DOTA-SP714, metal not drawn]
tissue uptake at 65 min ([1]; blood, 10 uCi, blood uptake, tumor volume 300-700 mm^3, 10 µCi i.v.): 0.78 ± 0.81 %ID/g | tissue uptake at 65 min ([1]; blood, 10 uCi, blood uptake, tumor volume <300 mm^3, 10 µCi i.v.): 0.49 ± 0.4 %ID/g | tissue uptake at 65 min ([1]; blood, 10 uCi, blood uptake, tumor volume >700 mm^3, 10 µCi i.v.): 2.27 ± 0.6 %ID/g | tissue uptake at 65 min ([1]; bone, 10 uCi, bone uptake, tumor volume 300-700 mm^3, 10 µCi i.v.): 0.26 ± 0.19 %ID/g | tissue uptake at 65 min ([1]; bone, 10 uCi, bone uptake, tumor volume <300 mm^3, 10 µCi i.v.): 0.2 ± 0.12 %ID/g | tissue uptake at 65 min ([1]; bone, 10 uCi, bone uptake, tumor volume >700 mm^3, 10 µCi i.v.): 0.67 ± 0.07 %ID/g | tissue uptake at 65 min ([1]; brain, 10 uCi, brain uptake, tumor volume 300-700 mm^3, 10 µCi i.v.): 0.03 ± 0.01 %ID/g | tissue uptake at 65 min ([1]; brain, 10 uCi, brain uptake, tumor volume <300 mm^3, 10 µCi i.v.): 0.03 ± 0.02 %ID/g | tissue uptake at 65 min ([1]; brain, 10 uCi, brain uptake, tumor volume >700 mm^3, 10 µCi i.v.): 0.09 ± 0.05 %ID/g | tissue uptake at 65 min ([1]; heart, 10 uCi (370 kBq), heart uptake, tumor volume 300-700 mm^3, 10 µCi i.v.): 0.16 ± 0.03 %ID/g | tissue uptake at 65 min ([1]; heart, 10 uCi (370 kBq), heart uptake, tumor volume >700 mm^3, 10 µCi i.v.): 0.68 ± 0.48 %ID/g | tissue uptake at 65 min ([1]; heart, 10 uCi, heart uptake, tumor volume <300 mm^3, 10 µCi i.v.): 0.16 ± 0.05 %ID/g | tissue uptake at 65 min ([1]; kidney, 10 uCi, kidney uptake, tumor volume 300-700 mm^3, 10 µCi i.v.): 2.59 ± 1.02 %ID/g | tissue uptake at 65 min ([1]; kidney, 10 uCi, kidney uptake, tumor volume <300 mm^3, 10 µCi i.v.): 2.75 ± 1.29 %ID/g | tissue uptake at 65 min ([1]; kidney, 10 uCi, kidney uptake, tumor volume >700 mm^3, 10 µCi i.v.): 6.64 ± 2.83 %ID/g | tissue uptake at 65 min ([1]; large intestine, 10 uCi, large intestine uptake, tumor volume 300-700 mm^3, 10 µCi i.v.): 2.63 ± 2.12 %ID/g | tissue uptake at 65 min ([1]; large intestine, 10 uCi, large intestine uptake, tumor volume <300 mm^3, 10 µCi i.v.): 1.38 ± 0.75 %ID/g | tissue uptake at 65 min ([1]; large intestine, 10 uCi, large intestine uptake, tumor volume >700 mm^3, 10 µCi i.v.): 3.75 ± 2.89 %ID/g | tissue uptake at 65 min ([1]; liver, 10 uCi, liver uptake, tumor volume 300-700 mm^3, 10 µCi i.v.): 0.31 ± 0.06 %ID/g | tissue uptake at 65 min ([1]; liver, 10 uCi, liver uptake, tumor volume <300 mm^3, 10 µCi i.v.): 0.29 ± 0.12 %ID/g | tissue uptake at 65 min ([1]; liver, 10 uCi, liver uptake, tumor volume >700 mm^3, 10 µCi i.v.): 0.9 ± 0.49 %ID/g | tissue uptake at 65 min ([1]; lung, 10 uCi (370 kBq), lung uptake, tumor volume 300-700 mm^3, 10 µCi i.v.): 0.64 ± 0.39 %ID/g | tissue uptake at 65 min ([1]; lung, 10 uCi (370 kBq), lung uptake, tumor volume <300 mm^3, 10 µCi i.v.): 1.08 ± 1.55 %ID/g | tissue uptake at 65 min ([1]; lung, 10 uCi, lung uptake, tumor volume >700 mm^3, 10 µCi i.v.): 1.39 ± 0.67 %ID/g | tissue uptake at 65 min ([1]; muscle, 10 uCi, muscle uptake, tumor volume 300-700 mm^3, 10 µCi i.v.): 0.15 ± 0.07 %ID/g | tissue uptake at 65 min ([1]; muscle, 10 uCi, muscle uptake, tumor volume <300 mm^3, 10 µCi i.v.): 0.17 ± 0.12 %ID/g | tissue uptake at 65 min ([1]; muscle, 10 uCi, muscle uptake, tumor volume >700 mm^3, 10 µCi i.v.): 0.46 ± 0.24 %ID/g | tissue uptake at 65 min ([1]; pancreas, 10 uCi, pancreas uptake, tumor volume 300-700 mm^3, 10 µCi i.v.): 23.8 ± 8.43 %ID/g | tissue uptake at 65 min ([1]; pancreas, 10 uCi, pancreas uptake, tumor volume <300 mm^3, 10 µCi i.v.): 19.4 ± 13 %ID/g | tissue uptake at 65 min ([1]; pancreas, 10 uCi, pancreas uptake, tumor volume >700 mm^3, 10 µCi i.v.): 22.6 ± 7.83 %ID/g | tissue uptake at 65 min ([1]; small intestine, 10 uCi, small intestine uptake, tumor volume 300-700 mm^3, 10 µCi i.v.): 2.82 ± 1.14 %ID/g | tissue uptake at 65 min ([1]; small intestine, 10 uCi, small intestine uptake, tumor volume <300 mm^3, 10 µCi i.v.): 2.53 ± 1.39 %ID/g | tissue uptake at 65 min ([1]; small intestine, 10 uCi, small intestine uptake, tumor volume >700 mm^3, 10 µCi i.v.): 4.21 ± 1.92 %ID/g | tissue uptake at 65 min ([1]; spleen, 10 uCi, spleen uptake, tumor volume 300-700 mm^3, 10 µCi i.v.): 2.53 ± 1.31 %ID/g | tissue uptake at 65 min ([1]; spleen, 10 uCi, spleen uptake, tumor volume <300 mm^3, 10 µCi i.v.): 1.46 ± 1.32 %ID/g | tissue uptake at 65 min ([1]; spleen, 10 uCi, spleen uptake, tumor volume >700 mm^3, 10 µCi i.v.): 3.02 ± 0.63 %ID/g | tissue uptake at 65 min ([1]; stomach, 10 uCi, stomach uptake, tumor volume 300-700 mm^3, 10 µCi i.v.): 1.68 ± 0.85 %ID/g | tissue uptake at 65 min ([1]; stomach, 10 uCi, stomach uptake, tumor volume <300 mm^3, 10 µCi i.v.): 0.94 ± 0.53 %ID/g | tissue uptake at 65 min ([1]; stomach, 10 uCi, stomach uptake, tumor volume >700 mm^3, 10 µCi i.v.): 4.89 ± 3.52 %ID/g | tissue uptake at 65 min ([1]; tumor, 10 uCi, tumor uptake, tumor volume 300-700 mm^3, 10 µCi i.v.): 5.35 ± 1.75 %ID/g | tissue uptake at 65 min ([1]; tumor, 10 uCi, tumor uptake, tumor volume <300 mm^3, 10 µCi i.v.): 4.16 ± 1.74 %ID/g | tissue uptake at 65 min ([1]; tumor, 10 uCi, tumor uptake, tumor volume >700 mm^3, 10 µCi i.v.): 9.44 ± 3.66 %ID/g | dose excreted at 65 min ([1]; 10 uCi, tumor volume 300-700 mm^3, 10 µCi i.v.): 73.2 ± 7% | dose excreted at 65 min ([1]; 10 uCi, tumor volume <300 mm^3, 10 µCi i.v.): 68.5 ± 23.4% | dose excreted at 65 min ([1]; 10 uCi, tumor volume >700 mm^3, 10 µCi i.v.): 59 ± 12.4% | logD (physchem): -2.2 ± 0.1
